Legend:
Conditions in all cases: label: 32P end label
[1] = molecular target: T1, nucleolin (NCL), recombinant (Homo sapiens, UniProt P19338 SEQ:1-710); experiment: filter; 20 mM Hepes, 150 mM NaCl, 2 mM CaCl2, 0.01% BSA, 37 C; Bmax 33.6%, R2 0.6520
Method: (§1) Aptamers were end-labeled with ³²P. Nucleolin protein was serially diluted in 20 mM Hepes, 150 mM NaCl, 2 mM CaCl₂ and 0.01% bovine serum albumin and incubated with a trace amount of the ³²P-labeled RNA pools. After incubation at 37° C., unbound RNA was captured on a nylon membrane and RNA-nucleolin complexes captured on a nitrocellulose membrane. The fraction of protein-bound RNA was determined via phosphorimaging of the nitrocellulose and nylon membranes.

[2] = molecular target: T1, nucleolin (NCL), recombinant; experiment: filter; 20 mM Hepes, 150 mM NaCl, 2 mM CaCl2, 0.01% BSA, 37 C; Bmax 32.76%
Method: as §1

[3] = molecular target: T1, nucleolin (NCL), recombinant; experiment: filter; among truncates with best affinity; values only in figure
[4] = molecular target: T1, nucleolin (NCL), recombinant; experiment: filter; Ev2 described as non-binding aptamer control
[5] = molecular target: T1, nucleolin (NCL), recombinant; experiment: filter; similar affinity to parent Ev3
[6] = molecular target: T1, nucleolin (NCL), recombinant; experiment: filter; 20 mM Hepes, 150 mM NaCl, 2 mM CaCl2, 0.01% BSA, 37 C; Bmax 53.6%
Method: as §1

[7] = molecular target: T1, nucleolin (NCL), recombinant; experiment: filter; 20 mM Hepes, 150 mM NaCl, 2 mM CaCl2, 0.01% BSA, 37 C; Bmax 25.2%
Method: as §1

[8] = molecular target: T1, nucleolin (NCL), recombinant; experiment: filter; 20 mM Hepes, 150 mM NaCl, 2 mM CaCl2, 0.01% BSA, 37 C; Bmax 23.08%
Method: as §1

T1 sequence (P19338 whole entry): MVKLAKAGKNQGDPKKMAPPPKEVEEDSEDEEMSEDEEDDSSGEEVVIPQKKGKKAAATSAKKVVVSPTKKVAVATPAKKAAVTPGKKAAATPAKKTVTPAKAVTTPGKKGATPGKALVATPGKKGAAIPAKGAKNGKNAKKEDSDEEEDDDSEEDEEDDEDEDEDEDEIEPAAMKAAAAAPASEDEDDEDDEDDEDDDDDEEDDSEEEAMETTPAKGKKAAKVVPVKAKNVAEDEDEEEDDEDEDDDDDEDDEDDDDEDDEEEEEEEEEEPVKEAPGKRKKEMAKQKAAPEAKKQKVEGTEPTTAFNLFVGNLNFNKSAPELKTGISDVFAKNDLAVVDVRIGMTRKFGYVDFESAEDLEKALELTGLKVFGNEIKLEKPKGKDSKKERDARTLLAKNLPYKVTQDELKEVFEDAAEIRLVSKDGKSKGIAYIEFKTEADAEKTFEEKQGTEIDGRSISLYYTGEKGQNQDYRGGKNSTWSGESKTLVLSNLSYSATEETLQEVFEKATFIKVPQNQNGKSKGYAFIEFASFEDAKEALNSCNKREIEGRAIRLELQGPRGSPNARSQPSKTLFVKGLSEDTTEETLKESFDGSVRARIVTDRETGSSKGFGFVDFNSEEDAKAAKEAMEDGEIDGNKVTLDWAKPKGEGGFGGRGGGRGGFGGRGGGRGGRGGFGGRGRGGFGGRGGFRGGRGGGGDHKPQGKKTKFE

B1: FAM-F (ssRNA)
RNA: GGGAGAGAGGAAGAGGGAUGGGACCACGCGCCAACGUGUCAGCUACACGCCGUGUUCCCCGGCAUAACCCAGAGGUCGAUAGUACUGGAUCCCCCC
modifications: 2'-F pyrimidines
Kd [1]: 0.37 nM

B2: FAM-C (ssRNA)
RNA: GGGAGAGAGGAAGAGGGAUGGGAAGAUCUGCUAAGUGCACGCACAAUCACCAUCGAGCGUCUCAUAACCCAGAGGUCGAUAGUACUGGAUCCCCCC
modifications: 2'-F pyrimidines
Kd [2]: 0.428 nM

B3: Ev3 (ssRNA)
RNA: GGGAGAGAGGAAGAGGGAUGGGCACGGUCCAGCGCUAACUGUACCUGCUGUGCCACCCACCG
modifications: 2'-F pyrimidines
binding result ([3]; DL650 for flow): binds

B4: Ev5 (ssRNA)
RNA: GGAAGAGGGAUGGGCACGGUCCAGCGCUAACUGUACCUGCUGUGCCACCCACC
modifications: 2'-F pyrimidines
binding result ([3]; DL650 for flow): binds

B5: Fv3 (ssRNA)
RNA: GGGAGAGAGGAAGAGGGAUGGGACCACGCGCCAACGUGUCAGCUACACGCCGUGUUCCCCGG
modifications: 2'-F pyrimidines
binding result [3]: binds

GGGAUGGGCACGGUCCAGCGCUAACUGUACCUGCUGUGCCACCCACCGC (ssRNA, 2'-F pyrimidines) [Ev2]
binding result [4]: no binding

GGGAUGGGCACGGUCCAGCGCUAACUGUACCUGCUGUGCCACCC (ssRNA, 2'-F pyrimidines) [Ev3.min21]
binding result [5]: binds

B6: Ev3.min22 (ssRNA)
RNA: GGGAGGAAGAGGGAUGGGCACGGUCCAGCGCUAACUGUACCUGCUGUGCCACCC
modifications: 2'-F pyrimidines
binding result [5]: binds

B7: Ev3.min24 (ssRNA)
RNA: GGGAGGAAGAGGGAUGGGCACGGUCCAGCGCACUGUACCUGCUGUGCCACCC
modifications: 2'-F pyrimidines
binding result [5]: binds

B8: FAM-D (ssRNA)
RNA: GGGAGAGAGGAAGAGGGAUGGGCACAUGGUACGCCCAAAGCGAGGCCCGCUGCGUAGUGCCAUAACCCAGAGGUCGAUAGUACUGGAUCCCCCC
modifications: 2'-F pyrimidines
Kd [6]: 0.586 nM

B9: FAM-B (ssRNA)
RNA: GGGAGAGAGGAAGAGGGAUGGGAGCCAGCUUUGCAUACCACGUGCAAUUCACUCCACCCGUCACAUAACCCAGAGGUCGAUAGUACUGGAUCCCCCC
modifications: 2'-F pyrimidines
Kd [7]: 0.851 nM

B10: FAM-E (ssRNA)
RNA: GGGAGAGAGGAAGAGGGAUGGGCACGGUCCAGCGCUAACUGUACCUGCUGUGCCACCCACCGCAUAACCCAGAGGUCGAUAGUACUGGAUCCCCCC
modifications: 2'-F pyrimidines
Kd [8]: 1.69 nM

B11: Bv1 (ssRNA)
RNA: GGAAGAGGGAUGGGUGCCAGCUUUGCAUACCACGUGCAAUUCACUCCACCCGUCAC
modifications: 2'-F pyrimidines
binding result [3]: binds

B12: Dv2 (ssRNA)
RNA: GGGAGAGAGGAAGAGGGAUGGGCACAUGGUACGCCCAAAGCGAGGCCCGCUGCGUAGUGCC
modifications: 2'-F pyrimidines
binding result [3]: binds

Reference: patent US20200283773, “NUCLEOLIN-TARGETING APTAMERS AND METHODS OF USING THE SAME” (Duke University, published 2020)
